Data as given in patent US10584169B2, “Anti-CD73 antibodies and uses thereof” (I-MAB BIOPHARMA US LIMITED, dated 2020).
Changes are numbered by the printed parent chain. Read-outs that look alike come from different tables or passages of the source.

T1: Recombinant human CD73 protein (human)
T1 chain: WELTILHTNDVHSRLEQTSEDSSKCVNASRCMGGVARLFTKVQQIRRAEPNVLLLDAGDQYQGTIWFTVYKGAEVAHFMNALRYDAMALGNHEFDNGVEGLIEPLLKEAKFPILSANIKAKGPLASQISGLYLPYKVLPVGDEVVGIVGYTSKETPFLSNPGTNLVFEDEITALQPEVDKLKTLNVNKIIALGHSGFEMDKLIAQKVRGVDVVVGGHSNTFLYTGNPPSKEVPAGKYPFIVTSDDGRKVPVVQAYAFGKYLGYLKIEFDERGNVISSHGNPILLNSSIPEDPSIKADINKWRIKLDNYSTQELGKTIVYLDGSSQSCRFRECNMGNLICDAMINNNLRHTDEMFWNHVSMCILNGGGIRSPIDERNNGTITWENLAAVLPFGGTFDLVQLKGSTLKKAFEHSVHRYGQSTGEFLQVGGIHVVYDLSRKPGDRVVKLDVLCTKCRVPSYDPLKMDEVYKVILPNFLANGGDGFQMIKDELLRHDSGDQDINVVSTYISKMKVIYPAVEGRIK

T2: Human CD73 on the cell surface (human)
T2 chain: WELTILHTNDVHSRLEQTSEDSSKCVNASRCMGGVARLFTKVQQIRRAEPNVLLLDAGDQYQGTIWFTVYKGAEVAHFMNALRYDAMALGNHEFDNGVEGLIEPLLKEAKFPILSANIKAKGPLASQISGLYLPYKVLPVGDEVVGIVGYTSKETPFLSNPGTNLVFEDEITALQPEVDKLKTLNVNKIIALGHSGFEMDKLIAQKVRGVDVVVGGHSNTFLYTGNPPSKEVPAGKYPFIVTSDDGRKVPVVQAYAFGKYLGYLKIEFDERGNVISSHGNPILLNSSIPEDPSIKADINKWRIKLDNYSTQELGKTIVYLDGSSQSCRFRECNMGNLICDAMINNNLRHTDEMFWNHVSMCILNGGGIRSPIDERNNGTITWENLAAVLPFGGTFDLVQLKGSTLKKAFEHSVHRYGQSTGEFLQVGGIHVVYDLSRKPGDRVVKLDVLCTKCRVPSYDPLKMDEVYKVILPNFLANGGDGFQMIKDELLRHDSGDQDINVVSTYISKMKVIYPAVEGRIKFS

B1: 101-Mu (antibody, V domains shown)
VH: DVQLQESGPGLVKPSQSLSLTCSVTGYSITSGYYWNWIRQFPGNKLEWMGYINYGGSNGYNPSLKSRISITRDTSKNQFFLKLNSVTTEDTATYYCARDYDAYYEALDDWGQGTSVTVSS
VL: QIVLSQSPAILSASPGEKVTMTCRASSRVNYMHWYQQKPGSSPKPWISATSNLASGVPARFSGSGSGTSYSLTISRVETEDAATYYCQQWSSNPPTFGGGTKLEIK
B2: 101-Mu chimera (antibody, V domains shown)
VH: B1 VH
VL: B1 VL
B3: Hu101-25 (antibody, V domains shown)
VH: EVQLQESGPGLVKPSETLSLTCAVSGYSISSGYYWNWIRQPPGKGLEWIGYINYGGSNGYNPSLKSRVTISRDTSKNQFSLKLSSVTAADTAVYYCARDYDAYYEALDDWGQGTTVTVSS
VL: EIVLSQSPATLSLSPGERATLSCRASSRVNYMHWYQQKPGQSPRPWISATSNLASGVPARFSGSGSGTSYTLTISSLEPEDFAVYYCQQWSSNPPTFGGGTKVEIK
B4: Hu101-28 (antibody, V domains shown)
VH: B3 VH with S30T, G45K, I49M, V68I
VL: B3 VL

Legend:
[1] = molecular target: T1, Recombinant human CD73 protein
[2] = molecular target: T2, Human CD73 on the cell surface
[3] = molecular target: T1, Recombinant human CD73 protein; experiment: Biacore T200, antibody captured, recombinant human CD73 as analyte, 1:1 model
Experimental: FIG. 3 plots the binding kinetics of 101-Mu and mAb1 with recombinant human CD73 (recombinant human CD73 was set as an analyte with serial concentrations (100, 50, 25, 12.5, 6.25, 3.125 nM)). The binding kinetics assay of antibody to antigen was performed using Biacore T200 system through a human antibody capture approach. The […] were immobilized on CM5 sensor chip according to the manufactory's instruction. The test antibody was injected and captured by the immobilized anti-human Fc IgG. And then serial concentrations of the antigen was individually injected, and the binding profile was recorded for each concentration antigen analyte, respectively. The assay system was regenerated by injection of 10 mM Glycine-HCl pH 1.5 for 30 seconds. The running buffer was HBS-EP+ (10 mM HEPES, pH 7.4, 150 mM NaCl, 3 mM EDTA and 0.05% P20). The assay temperature was 25° C., and the association and dissociation time were 180 and 600 seconds, respectively.

[4] = molecular target: T2, Human CD73 on the cell surface; experiment: flow cytometry on SK-OV-3 cells
[5] = molecular target: T1, Recombinant human CD73 protein; experiment: ELISA, plate-coated recombinant human CD73
[6] = molecular target: T2, Human CD73 on the cell surface; experiment: flow cytometry on SK-OV-3 cells
Experimental: Human ovarian cancer cell line (SK-OV-3 cells) which endogenously expressed human CD73 on the surface were stained with different concentrations of IgG control, chimeric anti-CD73 (101-Mu-Chimeric, or 101-Chi) and humanized anti-CD73 antibodies (Hu101-25 and Hu101-28) at […] for 30 mins. Then, the cells were washed with PBS three times, followed by incubation with APC-labeled anti-human Fc specific antibody (Invitrogen) at 4° C. for 30 mins. Binding was measured using an FACSCanto (Becton-Dickinson), and the results are presented in FIG. 8 (see also the table below).

[7] = molecular target: T2, Human CD73 on the cell surface
[8] = molecular target: T1, Recombinant human CD73 protein
[9] = molecular target: T1, Recombinant human CD73 protein; experiment: Biacore T200, antibody captured by anti-human Fc IgG, antigen as analyte, 1:1 model
Experimental: For the binding assay, the Biacore T200 system was used through human antibody capture approach. The anti-human Fc IgG were immobilized on CM5 sensor chip according to the manufactory's instruction. The test antibody was injected and captured by the immobilized anti-human Fc IgG. And then serial concentrations of antigen was individually injected, and the binding profile was recorded for each concentration antigen analyte, respectively. The assay system was regenerated by injection of 10 mM Glycine-HCl pH 1.5 for 30 seconds. The running buffer was HBS-EP+ (10 mM HEPES, pH 7.4, 150 mM NaCl, 3 mM EDTA and 0.05% P20). The assay temperature was 25° C., and the association and dissociation time were 180 and 600 seconds, respectively.

[10] = molecular target: T1, Recombinant human CD73 protein; experiment: ELISA with recombinant human CD73 (2 µg/ml)
[11] = molecular target: T2, Human CD73 on the cell surface
[12] = molecular target: T1, Recombinant human CD73 protein

Binder	IC50 of inhibition of CD73 enzymatic activity (CellTiter-Glo luminescence, residual CD73 activity) [1] [nM]	IC50 of inhibition of cellular CD73 enzyme activity on SK-OV-3 cells (CellTiter-Glo luminescence) [2] [nM]	Kd [3] [nM]	koff [3] [s⁻¹]	kon [3] [M⁻¹ s⁻¹]	EC50 [4] [nM]	EC50 [5] [nM]	EC50 [6] [nM]	IC50 (nM), inhibition of cellular CD73 enzyme activity on SK-OV-3 cells [7] [nM]	Max. Inhibition (%), cellular CD73 enzyme activity on SK-OV-3 cells [7] [%]	IC50 (nM), inhibition of recombinant human CD73 enzymatic activity [8] [nM]	Max. Inhibition (%), recombinant human CD73 enzymatic activity [8] [%]	Kd [9] [nM]	koff [9] [s⁻¹]	kon [9] [M⁻¹ s⁻¹]	EC50 [10] [nM]	IC50 of inhibition of cell-bound CD73 activity on MDA-MB-231 cells (CellTiter-Glo) [11] [nM]	IC50 of inhibition of cell-bound CD73 activity on SK-OV-3 cells (CellTiter-Glo) [11] [nM]	IC50 of inhibition of recombinant human CD73 activity (CellTiter-Glo) [12] [nM]
B1	3.89	4.62	0.421	3.42e-05	81300	0.54	0.08	–	–	–	–	–	–	–	–	–	–	–	–
B2	–	–	–	–	–	–	–	1.35	1.82	100	4.25	98	–	–	–	–	–	–	–
B3	–	–	–	–	–	–	–	2.38	2.98	100	4.72	99	0.747	5.51e-05	73700	–	–	–	–
B4	–	–	–	–	–	0.67	–	1.35	2.52	100	9.35	98	–	–	–	0.0887	8.21	2.52	2.84
